In patent US12036274B2, “Recombinant MPT protein derived from MPT63 and MPT64 and use thereof” (priority 2021, dated 2024):

T1: p47phox (Homo sapiens, UniProt P14598)
T1 sequence (P14598 1-390): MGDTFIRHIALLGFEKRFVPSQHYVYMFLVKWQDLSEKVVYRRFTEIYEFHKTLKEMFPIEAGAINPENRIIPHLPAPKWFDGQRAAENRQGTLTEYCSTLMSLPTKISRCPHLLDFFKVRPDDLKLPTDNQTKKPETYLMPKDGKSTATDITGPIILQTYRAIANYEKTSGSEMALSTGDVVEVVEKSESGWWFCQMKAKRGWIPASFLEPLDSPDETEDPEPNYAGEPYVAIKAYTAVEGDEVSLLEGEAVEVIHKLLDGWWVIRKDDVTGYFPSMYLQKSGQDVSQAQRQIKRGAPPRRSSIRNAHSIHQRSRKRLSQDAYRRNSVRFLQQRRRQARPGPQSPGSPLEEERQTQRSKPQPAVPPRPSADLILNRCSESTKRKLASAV

T2: TBK1 and HK2 (Homo sapiens, UniProt Q9UHD2)
T2 construct: endogenous in cells; host or cells: THP-1
T2 sequence (Q9UHD2 1-729): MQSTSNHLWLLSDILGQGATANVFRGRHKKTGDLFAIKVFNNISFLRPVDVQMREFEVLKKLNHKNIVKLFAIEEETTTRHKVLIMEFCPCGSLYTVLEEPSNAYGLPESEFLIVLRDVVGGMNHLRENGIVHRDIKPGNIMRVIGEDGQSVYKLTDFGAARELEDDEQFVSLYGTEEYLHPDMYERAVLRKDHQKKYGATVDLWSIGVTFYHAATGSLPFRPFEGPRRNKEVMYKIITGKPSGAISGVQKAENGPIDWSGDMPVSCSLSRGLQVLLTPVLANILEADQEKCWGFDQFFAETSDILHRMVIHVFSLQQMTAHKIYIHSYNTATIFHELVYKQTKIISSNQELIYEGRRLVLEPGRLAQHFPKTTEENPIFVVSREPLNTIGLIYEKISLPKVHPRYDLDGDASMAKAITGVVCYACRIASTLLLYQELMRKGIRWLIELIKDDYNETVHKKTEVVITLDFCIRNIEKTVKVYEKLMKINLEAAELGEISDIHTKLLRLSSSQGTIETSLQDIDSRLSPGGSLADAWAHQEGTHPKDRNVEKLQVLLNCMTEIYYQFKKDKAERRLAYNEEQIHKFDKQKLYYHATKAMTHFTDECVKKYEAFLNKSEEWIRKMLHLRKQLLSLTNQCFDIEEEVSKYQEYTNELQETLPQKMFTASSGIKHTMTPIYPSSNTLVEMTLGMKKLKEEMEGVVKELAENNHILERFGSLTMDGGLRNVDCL

B1: MPT63: secreted antigen of Mycobacterium tuberculosis, recombinant, purified with the 6×His bacterial expression system (protein)
chain: AYPITGKLGSELTMTDTVGQVVLGWKVSDLKSSTAVIPGYPVAGQVWEATATVNAIRGSVTPAVSQFNARTADGINYRVLWQAAGPDTISGATIPQGEQSTGKIYFDVTGPSPTIVAMNNGMEDLLIWEP
modifications: left off: small tags and cut ends
notes: secreted antigen of Mycobacterium tuberculosis, recombinant, purified with the 6×His bacterial expression system
B2: MPT64: secreted antigen of Mycobacterium tuberculosis, recombinant, produced in a bacterial expression system (protein)
chain: APKTYCEELKGTDTGQACQIQMSDPAYNINISLPSYYPDQKSLENYIAQTRDKFLSAATSSTPREAPYELNITSATYQSAIPPRGTQAVVLKVYQNAGGTHPTTTYKAFDWDQAYRKPITYDTLWQADTDPLPVVFPIVQGELSKQTGQQVSIAPNAGLDPVNYQNFAVTNDGVIFFFNPGELLPEAAGPTQVLVPRSAIDSMLA
modifications: left off: small tags and cut ends
notes: secreted antigen of Mycobacterium tuberculosis, recombinant, produced in a bacterial expression system

Columns and labels:
[1] = target: TBK1 (Homo sapiens, UniProt Q9UHD2); conditions: read-out: Kd of interaction with TBK1; fluorescently labeled protein titrated with unlabeled TBK1, curve fitting, 25° C., pH 7.4
Procedure: (§1) The interaction of MPT63-TBK1 with p47phox and the interaction of MPT64-TBK1 with HK2 were monitored using a Fluoromax-4 spectrofluorometer (HORIBA Scientific) which was performed as previously described (Guo et al., 2005). MPT63 and MPT64, respectively, were labeled with BODIPY FL Iodoacetamide (ThermoFisher Scientific) according to the manufacturer's instructions. The labeled MPT63 or MPT64 was excited at 350 nm and detected through a cutoff filter at 512 nm. The fluorescently labeled MPT63 or MPT64 was titrated with unlabeled TBK1, p47phox or HK2 for kinetic analysis. The excitation and emission wavelengths were 498 mm and 518 nm, respectively. The obtained data were verified using the Grafit program, and all fluorescence measurements were performed at 25° C. in 30 mM Tris, pH 7.4, 150 mM NaCl and 1 mM dithiothryitol.

[2] = test system: TBK1 and p47phox; test: Co-immunoprecipitation of rMPT63 in THP-1 cells; type: cell-based, human; conditions: 5 μg/ml
[3] = target: T1, p47phox; conditions: read-out: Kd of interaction with p47phox; fluorescently labeled MPT63 titrated with unlabeled p47phox, 25° C., pH 7.4
Procedure: as §1

[4] = target: T2, TBK1 and HK2; test: Co-immunoprecipitation of rMPT64 in THP-1 cells; type: cell-based; conditions: 5 μg/ml
[5] = target: HK2 (Homo sapiens, UniProt P52789)
Sequence of HK2 (P52789 whole entry): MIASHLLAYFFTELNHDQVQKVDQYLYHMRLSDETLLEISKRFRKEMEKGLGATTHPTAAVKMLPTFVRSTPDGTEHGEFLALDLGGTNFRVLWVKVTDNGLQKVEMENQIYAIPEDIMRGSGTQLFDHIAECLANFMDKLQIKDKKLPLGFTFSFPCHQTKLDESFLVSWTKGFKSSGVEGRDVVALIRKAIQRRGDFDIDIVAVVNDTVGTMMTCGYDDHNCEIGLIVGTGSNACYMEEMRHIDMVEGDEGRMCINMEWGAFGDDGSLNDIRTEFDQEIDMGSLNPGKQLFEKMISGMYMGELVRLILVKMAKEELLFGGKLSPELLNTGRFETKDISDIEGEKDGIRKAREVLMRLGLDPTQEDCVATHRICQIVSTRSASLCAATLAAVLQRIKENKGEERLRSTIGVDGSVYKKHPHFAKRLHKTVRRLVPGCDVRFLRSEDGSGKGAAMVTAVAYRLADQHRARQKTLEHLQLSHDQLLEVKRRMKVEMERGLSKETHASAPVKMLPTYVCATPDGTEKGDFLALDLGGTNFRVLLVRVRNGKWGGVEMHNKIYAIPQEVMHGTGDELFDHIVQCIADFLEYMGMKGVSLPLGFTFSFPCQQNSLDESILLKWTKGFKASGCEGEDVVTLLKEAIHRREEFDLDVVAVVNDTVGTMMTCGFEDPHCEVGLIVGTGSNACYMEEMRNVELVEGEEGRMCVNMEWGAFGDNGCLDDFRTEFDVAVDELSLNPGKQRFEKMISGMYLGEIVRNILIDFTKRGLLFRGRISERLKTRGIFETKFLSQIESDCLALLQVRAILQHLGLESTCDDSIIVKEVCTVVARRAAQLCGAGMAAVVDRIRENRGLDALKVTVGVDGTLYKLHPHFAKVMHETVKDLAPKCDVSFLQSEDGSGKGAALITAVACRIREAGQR
Procedure: as §1

Row | Molecule | Kd [1] [nM] | endogenous interaction with TBK1 and p47phox [2] | Kd [3] [nM] | interaction with phosphorylated TBK1 (S172) [4] | Kd [5] [nM]
1 | B1 | 178 | endogenously interacted | 345 |  | 
2 | B2 | 193 |  |  | interacts | 134
